Assay results from patent US20160264674A1 (ADURO BIOTECH HOLDINGS EUROPE B V, published 2016).

Assays:
FLAG-tagged human APRIL [1] = target: T1, FLAG-tagged human APRIL (human, UniProt O75888 105-250, limits assumed); assay: FLAG-APRIL ELISA after 10 min at 65 °C, antibody at 1 µg/ml
T1 construct: also called FLAG-tagged APRIL; FLAG-APRIL; not shown: FLAG tag
T1 sequence (looked up): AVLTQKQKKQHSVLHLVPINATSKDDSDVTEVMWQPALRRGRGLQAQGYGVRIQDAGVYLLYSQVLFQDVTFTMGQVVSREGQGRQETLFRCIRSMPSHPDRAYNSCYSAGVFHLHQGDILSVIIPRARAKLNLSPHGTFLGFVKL
Method: (§1) The plasmids encoding the VH and VL constructs were mixed in a 1:3 ratio (4 μg in total) and transiently expressed by transfection into HEK293T human embryonic kidney cells (HEK293T/17, ATCC-CRL-11268), using Lipofectamine 2000 transfection reagent (Invitrogen) following the manufacturer's instructions. Cell supernatants were harvested after 5 days and tested for expression of antibody and binding to APRIL using an enzyme-linked immuno assay (ELISA). In these ELISAs, all incubation steps were followed by a wash step with PBST (PBS with 0.01% Tween 20). Maxisorb 96-wells plates (Nunc) were coated with 0.5 μg/ml anti-FLAG (Sigma) or anti-IgG4 (Jackson laboratories) and incubated overnight at 4° C. Subsequently the anti-FLAG coated 96-wells plates were incubated with FLAG-tagged human APRIL for 1 hour at room temperature. Next, supernatants and dilutions thereof were incubated for 1 hour, which was followed by an incubation of 1 hour with mouse anti-human IgG HRP-conjugate (Southern Biotechnology).
(§2) To determine the effect of humanization on the stability of the antibodies, humanized antibodies were exposed to a range of temperatures for 10 minutes. Purified antibodies were diluted to 3.16 μg/ml and dilutions thereof in PBS. Next, these solutions were exposed to 65° C. or 70° C. and residual binding after heat treatment of the antibodies was measured using the FLAG-tagged APRIL ELISA assay as described before (see Table 6).

FLAG-tagged human APRIL [2] = target: T1, FLAG-tagged human APRIL; assay: FLAG-APRIL ELISA after 10 min at 70 °C, antibody at 1 µg/ml
Method: as §1, §2

FLAG-tagged human APRIL [3] = target: T1, FLAG-tagged human APRIL; assay: FLAG-APRIL ELISA after 10 min at 65 °C, antibody at 1 µg/ml; remark: listed apart in the source
Method: as §1, §2
(§3) In addition, the stability of the substituted humanized antibodies was improved as determined using thermostability studies as described in Example 3 (see Table 9).

FLAG-tagged human APRIL [4] = target: T1, FLAG-tagged human APRIL; assay: FLAG-APRIL ELISA after 10 min at 70 °C, antibody at 1 µg/ml; remark: listed apart in the source
FLAG-tagged human APRIL [5] = target: T1, FLAG-tagged human APRIL; assay: FLAG-APRIL ELISA after 10 min at 65 °C, antibody at 3.16 µg/ml
Method: as §1, §2

FLAG-tagged human APRIL [6] = target: T1, FLAG-tagged human APRIL; assay: FLAG-APRIL ELISA after 10 min at 70 °C, antibody at 3.16 µg/ml
Method: as §1, §2

FLAG-tagged human APRIL [7] = target: T1, FLAG-tagged human APRIL; assay: FLAG-APRIL ELISA after 10 min at 65 °C, antibody at 3.16 µg/ml; remark: listed apart in the source
Method: as §1, §2, §3

FLAG-tagged human APRIL [8] = target: T1, FLAG-tagged human APRIL; assay: FLAG-APRIL ELISA after 10 min at 70 °C, antibody at 3.16 µg/ml; remark: listed apart in the source
FLAG-tagged human APRIL [9] = target: T1, FLAG-tagged human APRIL; assay: FLAG-APRIL ELISA after 10 min at 65 °C, antibody at 0.316 µg/ml
Method: as §1, §2

FLAG-tagged human APRIL [10] = target: T1, FLAG-tagged human APRIL; assay: FLAG-APRIL ELISA after 10 min at 70 °C, antibody at 0.316 µg/ml
Method: as §1, §2

FLAG-tagged human APRIL [11] = target: T1, FLAG-tagged human APRIL; assay: FLAG-APRIL ELISA after 10 min at 65 °C, antibody at 0.316 µg/ml; remark: listed apart in the source
Method: as §1, §2, §3

FLAG-tagged human APRIL [12] = target: T1, FLAG-tagged human APRIL; assay: FLAG-APRIL ELISA after 10 min at 70 °C, antibody at 0.316 µg/ml; remark: listed apart in the source
FLAG-tagged human APRIL [13] = target: T1, FLAG-tagged human APRIL; assay: ELISA: FLAG-tagged human APRIL captured on anti-FLAG plate, purified antibody titrated
Method: as §1
A subset of humanized antibodies described above was selected for further analyses. Again, plasmids encoding the VH and VL constructs were mixed in a 1:3 ratio (32 μg) and transiently expressed by transfection into (8*10⁶) HEK293T human embryonic kidney cells (HEK293T), using Lipofectamine 2000 transfection reagent (Invitrogen) according to the manufacturer's instructions. Supernatants were harvested (10 ml) and antibodies were purified using MabSelect Sure Protein A resin according to the manufacturer's instructions (GE Healthcare). Buffer was exchanged for PBS using Zeba desalting columns (Thermo Scientific). The concentration of purified antibodies was determined based on OD280 (Nanodrop ND-1000). The binding of the purified antibodies to APRIL was established using the above described APRIL ELISA. The blocking capability of the humanized antibodies with BCMA and TACI receptors, was tested in a competition ELISA. In these ELISAs, all incubation steps were followed by a wash step with PBST (PBS with 0.01% Tween 20). Maxisorb 96-wells plates (Nunc) were coated with 0.5 μg/ml Fc-BCMA (R&D Systems) or Fc-TACI (R&D Systems) and incubated overnight at 4° C. Next, humanized antibodies and dilutions thereof were incubated, premixed with FLAG-tagged APRIL, for 1 hour, which was followed by an incubation of 1 hour with anti-FLAG HRP-conjugate (Sigma).

Binder | % residual binding after heat treatment (room temperature = 100%) (FLAG-tagged human APRIL [1]) [%] | % residual binding after heat treatment (room temperature = 100%) (FLAG-tagged human APRIL [2]) [%] | % residual binding after heat treatment (room temperature = 100%) (FLAG-tagged human APRIL [3]) [%] | % residual binding after heat treatment (room temperature = 100%) (FLAG-tagged human APRIL [4]) [%] | % residual binding after heat treatment (room temperature = 100%) (FLAG-tagged human APRIL [5]) [%] | % residual binding after heat treatment (room temperature = 100%) (FLAG-tagged human APRIL [6]) [%] | % residual binding after heat treatment (room temperature = 100%) (FLAG-tagged human APRIL [7]) [%] | % residual binding after heat treatment (room temperature = 100%) (FLAG-tagged human APRIL [8]) [%] | % residual binding after heat treatment (room temperature = 100%) (FLAG-tagged human APRIL [9]) [%] | % residual binding after heat treatment (room temperature = 100%) (FLAG-tagged human APRIL [10]) [%] | % residual binding after heat treatment (room temperature = 100%) (FLAG-tagged human APRIL [11]) [%] | % residual binding after heat treatment (room temperature = 100%) (FLAG-tagged human APRIL [12]) [%] | EC50 (FLAG-tagged human APRIL [13]) [nM]
VH14.VL15 (antibody, human IgG4 S228P, kappa, V domains shown, Humanized IgG4 (S241P, Kabat) with human kappa, from HEK293T) VH: QVQLVQSGAEVKKPGASVKVSCKASGYTFTSYVMHWVRQAPGQGLEWMGYINPYNDAPKYNEKFKGRVTMTRDTSASTAYMELSSLRSDDTAVYYCARGLGYALYYAMDYWGQGTTVTVSS VL: DIVMTQSPSTLSASVGDRVTITCKASQNVGNNVAWYQQKPGKAPKLLISSASNRDSGVPSRFSGSGSGTEFTLTISSLQPDDFATYFCQQYNIYPFTFGQGTKLEIKR | 45.2 | 42.5 | 47.5 | 55.1 | 58.6 | 50 | 59 | 58.6 | 63.7 | 63.1 | 67.5 | 79.1 | 48.3
VH12.VL15 (antibody, human IgG4 S228P, kappa, V domains shown, Humanized IgG4 (S241P, Kabat) with human kappa, from HEK293T; also called 12.15) VH: QVQLVQSGAEVKKPGASVKVSCKASGYTFTSYVMHWVRQAPGQGLEWMGYINPYNDAPKYNEKFKGRVTMTRDTSISTAYMELSRLRSDDTAVYYCARGLGYALYYAMDYWGQGTTVTVSS VL: DIVMTQSPSTLSASVGDRVTITCKASQNVGNNVAWYQQKPGKAPKLLISSASNRDSGVPSRFSGSGSGTEFTLTISSLQPDDFATYFCQQYNIYPFTFGQGTKLEIKR | 49.8 | 51.8 | – | – | 66.4 | 50.2 | – | – | 74.3 | 70.3 | – | – | 19.8
VH13.VL15 (antibody, human IgG4 S228P, kappa, V domains shown, Humanized IgG4 (S241P, Kabat) with human kappa, from HEK293T; also called 13.15) VH: QVQLVQSGAEVKKPGASVKVSCKASGYTFTSYVMHWVRQAPGQGLEWMGYINPYNDAPKYNEKFKGRVTMTRDTSTSTVYMELSSLRSEDTAVYYCARGLGYALYYAMDYWGQGTMVTVSS VL: DIVMTQSPSTLSASVGDRVTITCKASQNVGNNVAWYQQKPGKAPKLLISSASNRDSGVPSRFSGSGSGTEFTLTISSLQPDDFATYFCQQYNIYPFTFGQGTKLEIKR | 44.4 | 47.4 | – | – | 76.2 | 80.5 | – | – | 66.1 | 65 | – | – | 223
